# Source: IntAct's records for PubMed 25416956
# B1: Tumor necrosis factor receptor superfamily member 13B (Homo sapiens), O14836 (parent)
# chain: MSGLGRSRRGGRSRVDQEERFPQGLWTGVAMRSCPEEQYWDPLLGTCMSCKTICNHQSQRTCAAFCRSLSCRKEQGKFYDHLLRDCISCASICGQHPKQCAYFCENKLRSPVNLPPELRRQRSGEVENNSDNSGRYQGLEHRGSEASPALPGLKLSADQVALVYSTLGLCLCAVLCCFLVAVACFLKKRGDPCSCQPRSRPRQSPAKSSQDHAMEAGSPVSTSPEPVETCSFCFPECRAPTQESAVTPGTPDPTCAGRWGCHTRTTVLQPCPHIPDSGLGIVCVPAQEGGPGA
# B2: Inactive peptidyl-prolyl cis-trans isomerase FKBP6 (Homo sapiens), O75344 (parent)
# chain: MGGSALNQGVLEGDDAPGQSLYERLSQRMLDISGDRGVLKDVIREGAGDLVAPDASVLVKYSGYLEHMDRPFDSNYFRKTPRLMKLGEDITLWGMELGLLSMRRGELARFLFKPNYAYGTLGCPPLIPPNTTVLFEIELLDFLDCAESDKFCALSAEQQDQFPLQKVLKVAATEREFGNYLFRQNRFYDAKVRYKRALLLLRRRSAPPEEQHLVEAAKLPVLLNLSFTYLKLDRPTIALCYGEQALIIDQKNAKALFRCGQACLLLTEYQKARDFLVRAQKEQPFNHDINNELKKLASCYRDYVDKEKEMWHRMFAPCGDGSTAGES
# partner: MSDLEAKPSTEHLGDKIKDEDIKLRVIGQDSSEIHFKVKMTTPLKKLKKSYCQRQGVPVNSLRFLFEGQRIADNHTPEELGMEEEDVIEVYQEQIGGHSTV
# B3: Inactive peptidyl-prolyl cis-trans isomerase FKBP6 (Homo sapiens), O75344 (parent)
# chain: B2 chain
# partner: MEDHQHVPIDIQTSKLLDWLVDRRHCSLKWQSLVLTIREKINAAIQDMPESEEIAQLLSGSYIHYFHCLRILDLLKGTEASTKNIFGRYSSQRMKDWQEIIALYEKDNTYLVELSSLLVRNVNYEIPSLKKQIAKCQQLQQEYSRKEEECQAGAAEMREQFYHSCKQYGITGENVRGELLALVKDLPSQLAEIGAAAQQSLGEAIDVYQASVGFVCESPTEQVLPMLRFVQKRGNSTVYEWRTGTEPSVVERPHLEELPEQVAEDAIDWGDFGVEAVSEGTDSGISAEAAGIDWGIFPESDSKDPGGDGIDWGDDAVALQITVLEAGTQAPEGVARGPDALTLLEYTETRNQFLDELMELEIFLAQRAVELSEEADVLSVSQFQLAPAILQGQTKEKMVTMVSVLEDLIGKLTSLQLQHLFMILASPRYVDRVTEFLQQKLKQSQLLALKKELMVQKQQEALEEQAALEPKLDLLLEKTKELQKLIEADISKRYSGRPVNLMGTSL
# B4: Inactive peptidyl-prolyl cis-trans isomerase FKBP6 (Homo sapiens), O75344 (parent)
# chain: B2 chain
# partner: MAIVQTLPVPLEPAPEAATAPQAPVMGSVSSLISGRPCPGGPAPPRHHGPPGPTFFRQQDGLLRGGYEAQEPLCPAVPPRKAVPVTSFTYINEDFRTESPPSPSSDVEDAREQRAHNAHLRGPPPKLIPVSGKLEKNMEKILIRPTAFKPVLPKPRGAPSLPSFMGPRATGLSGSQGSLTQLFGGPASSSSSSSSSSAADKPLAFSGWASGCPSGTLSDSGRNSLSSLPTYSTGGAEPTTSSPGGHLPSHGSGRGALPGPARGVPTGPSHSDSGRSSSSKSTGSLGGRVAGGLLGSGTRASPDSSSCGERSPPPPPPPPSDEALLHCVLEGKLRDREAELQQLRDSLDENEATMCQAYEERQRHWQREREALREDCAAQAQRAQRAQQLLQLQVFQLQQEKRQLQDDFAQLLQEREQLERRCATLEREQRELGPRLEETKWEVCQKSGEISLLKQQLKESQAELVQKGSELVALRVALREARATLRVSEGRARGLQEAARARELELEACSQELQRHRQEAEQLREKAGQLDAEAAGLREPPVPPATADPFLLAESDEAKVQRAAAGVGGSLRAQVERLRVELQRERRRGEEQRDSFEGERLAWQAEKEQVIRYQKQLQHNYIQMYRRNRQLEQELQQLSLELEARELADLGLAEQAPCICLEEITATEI
# B5: Chorion-specific transcription factor GCMb (Homo sapiens), O75603 (parent)
# chain: MPAAAVQEAVGVCSYGMQLSWDINDPQMPQELALFDQFREWPDGYVRFIYSSDEKKAQRHLSGWAMRNTNNHNGHILKKSCLGVVVCTQACTLPDGSRLQLRPAICDKARLKQQKKACPNCHSALELIPCRGHSGYPVTNFWRLDGNAIFFQAKGVHDHPRPESKSETEARRSAIKRQMASFYQPQKKRIRESEAEENQDSSGHFSNIPPLENPEDFDIVTETSFPIPGQPCPSFPKSDVYKATCDLATFQGDKMPPFQKYSSPRIYLPRPPCSYELANPGYTNSSPYPTLYKDSTSIPNDTDWVHLNTLQCNVNSYSSYERSFDFTNKQHGWKPALGKPSLVERTNHGQFQAMATRPYYNPELPCRYLTTPPPGAPALQTVITTTTKVSYQAYQPPAMKYSDSVREVKSLSSCNYAPEDTGMSVYPEPWGPPVTVTRAASPSGPPPMKIAGDCRAIRPTVAIPHEPVSSRTDEAETWDVCLSGLGSAVSYSDRVGPFFTYNNEDF
# partner: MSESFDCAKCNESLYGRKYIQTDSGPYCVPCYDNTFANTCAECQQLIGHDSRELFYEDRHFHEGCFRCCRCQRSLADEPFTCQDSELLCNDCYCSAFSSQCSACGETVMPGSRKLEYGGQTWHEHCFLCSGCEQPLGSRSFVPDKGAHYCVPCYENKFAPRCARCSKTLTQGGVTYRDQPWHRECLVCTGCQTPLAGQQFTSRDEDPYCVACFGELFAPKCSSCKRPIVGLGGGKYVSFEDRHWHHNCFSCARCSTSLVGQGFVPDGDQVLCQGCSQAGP
# B6: Chorion-specific transcription factor GCMb (Homo sapiens), O75603 (parent)
# chain: B5 chain
# Variants of: B1
# Settings: with sgta_human SGTA
row,Variant,effect of a mutation on the interaction
1,MSGLGRSRRGGRSRVDQEERFPQGLWTGVAMRSCPEEQYWDPLLGTCMSCKTICNHQSQRTCAAFCRSLSCRKEQGKFYDHLLRDCISCASICGQHPKQCAYFCENKLRSPVNLPPELRRQRSGRVENNSDNSGRYQGLEHRGSEASPALPGLKLSADQVALVYSTLGLCLCAVLCCFLVAVACFLKKRGDPCSCQPRSRPRQSPAKSSQDHAMEAGSPVSTSPEPVETCSFCFPECRAPTQESAVTPGTPDPTCAGRWGCHTRTTVLQPCPHIPDSGLGIVCVPAQEGGPGA [E125R],disrupting interaction

# Variants of: B2
# Settings: with sumo5_human SUMO1P1, G2XKQ0
row,Variant,effect of a mutation on the interaction
1,MGGSALNQGVLEGDDAPGQSLYERLSQRMLDISGDRGVLKDVIREGAGDLVAPDASVLVKYSGYLEHMDRPLDSNYFRKTPRLMKLGEDITLWGMELGLLSMRRGELARFLFKPNYAYGTLGCPPLIPPNTTVLFEIELLDFLDCAESDKFCALSAEQQDQFPLQKVLKVAATEREFGNYLFRQNRFYDAKVRYKRALLLLRRRSAPPEEQHLVEAAKLPVLLNLSFTYLKLDRPTIALCYGEQALIIDQKNAKALFRCGQACLLLTEYQKARDFLVRAQKEQPFNHDINNELKKLASCYRDYVDKEKEMWHRMFAPCGDGSTAGES [F72L],disrupting interaction

# Variants of: B3
# Settings: with ck5p3_human CDK5RAP3, Q96JB5
row,Variant,effect of a mutation on the interaction
1,MGGSALNQGVLEGDDAPGQSLYERLSQRMLDISGDRGVLKDVIREGAGDLVAPDASVLVKYSGYLEHMDRPLDSNYFRKTPRLMKLGEDITLWGMELGLLSMRRGELARFLFKPNYAYGTLGCPPLIPPNTTVLFEIELLDFLDCAESDKFCALSAEQQDQFPLQKVLKVAATEREFGNYLFRQNRFYDAKVRYKRALLLLRRRSAPPEEQHLVEAAKLPVLLNLSFTYLKLDRPTIALCYGEQALIIDQKNAKALFRCGQACLLLTEYQKARDFLVRAQKEQPFNHDINNELKKLASCYRDYVDKEKEMWHRMFAPCGDGSTAGES [F72L],disrupting interaction

# Variants of: B4
# Settings: with lzts2_human LZTS2, Q9BRK4
row,Variant,effect of a mutation on the interaction
1,MGGSALNQGVLEGDDAPGQSLYERLSQRMLDISGDRGVLKDVIREGAGDLVAPDASVLVKYSGYLEHMDRPLDSNYFRKTPRLMKLGEDITLWGMELGLLSMRRGELARFLFKPNYAYGTLGCPPLIPPNTTVLFEIELLDFLDCAESDKFCALSAEQQDQFPLQKVLKVAATEREFGNYLFRQNRFYDAKVRYKRALLLLRRRSAPPEEQHLVEAAKLPVLLNLSFTYLKLDRPTIALCYGEQALIIDQKNAKALFRCGQACLLLTEYQKARDFLVRAQKEQPFNHDINNELKKLASCYRDYVDKEKEMWHRMFAPCGDGSTAGES [F72L],disrupting interaction

# Variants of: B5
# Settings: with fhl3_human FHL3, Q13643
row,Variant,effect of a mutation on the interaction
1,MPAAAVQEAVGVCSYGMQLSWDINDPQMPQELALFDQFREWPDGYVLFIYSSDEKKAQRHLSGWAMRNTNNHNGHILKKSCLGVVVCTQACTLPDGSRLQLRPAICDKARLKQQKKACPNCHSALELIPCRGHSGYPVTNFWRLDGNAIFFQAKGVHDHPRPESKSETEARRSAIKRQMASFYQPQKKRIRESEAEENQDSSGHFSNIPPLENPEDFDIVTETSFPIPGQPCPSFPKSDVYKATCDLATFQGDKMPPFQKYSSPRIYLPRPPCSYELANPGYTNSSPYPTLYKDSTSIPNDTDWVHLNTLQCNVNSYSSYERSFDFTNKQHGWKPALGKPSLVERTNHGQFQAMATRPYYNPELPCRYLTTPPPGAPALQTVITTTTKVSYQAYQPPAMKYSDSVREVKSLSSCNYAPEDTGMSVYPEPWGPPVTVTRAASPSGPPPMKIAGDCRAIRPTVAIPHEPVSSRTDEAETWDVCLSGLGSAVSYSDRVGPFFTYNNEDF [R47L],disrupting interaction

# Variants of: B6
# Settings: with rbpms_human RBPMS
row,Variant,effect of a mutation on the interaction
1,MPAAAVQEAVGVCSYGMQLSWDINDPQMPQELALFDQFREWPDGYVRFIYSSDEKKAQRHLSSWAMRNTNNHNGHILKKSCLGVVVCTQACTLPDGSRLQLRPAICDKARLKQQKKACPNCHSALELIPCRGHSGYPVTNFWRLDGNAIFFQAKGVHDHPRPESKSETEARRSAIKRQMASFYQPQKKRIRESEAEENQDSSGHFSNIPPLENPEDFDIVTETSFPIPGQPCPSFPKSDVYKATCDLATFQGDKMPPFQKYSSPRIYLPRPPCSYELANPGYTNSSPYPTLYKDSTSIPNDTDWVHLNTLQCNVNSYSSYERSFDFTNKQHGWKPALGKPSLVERTNHGQFQAMATRPYYNPELPCRYLTTPPPGAPALQTVITTTTKVSYQAYQPPAMKYSDSVREVKSLSSCNYAPEDTGMSVYPEPWGPPVTVTRAASPSGPPPMKIAGDCRAIRPTVAIPHEPVSSRTDEAETWDVCLSGLGSAVSYSDRVGPFFTYNNEDF [G63S],disrupting interaction
